Where no end group is shown, it is not given here. Side-chain parts run from the residue outwards. [ ]: non-standard residue; d: D form. The star is where a group is joined. BODIPY(FL) = CC1=CC(C)=[N+]2C1=Cc1ccc(CCC(=O)*)n1[B-]2(F)F; NMeK = CN[C@@H](CCCCN)C(=O)O; Ahx = NCCCCCC(=O)O; BDPFL = dye
T1: integrin αvβ5 (human, UniProt P06756)
T1 chain 1: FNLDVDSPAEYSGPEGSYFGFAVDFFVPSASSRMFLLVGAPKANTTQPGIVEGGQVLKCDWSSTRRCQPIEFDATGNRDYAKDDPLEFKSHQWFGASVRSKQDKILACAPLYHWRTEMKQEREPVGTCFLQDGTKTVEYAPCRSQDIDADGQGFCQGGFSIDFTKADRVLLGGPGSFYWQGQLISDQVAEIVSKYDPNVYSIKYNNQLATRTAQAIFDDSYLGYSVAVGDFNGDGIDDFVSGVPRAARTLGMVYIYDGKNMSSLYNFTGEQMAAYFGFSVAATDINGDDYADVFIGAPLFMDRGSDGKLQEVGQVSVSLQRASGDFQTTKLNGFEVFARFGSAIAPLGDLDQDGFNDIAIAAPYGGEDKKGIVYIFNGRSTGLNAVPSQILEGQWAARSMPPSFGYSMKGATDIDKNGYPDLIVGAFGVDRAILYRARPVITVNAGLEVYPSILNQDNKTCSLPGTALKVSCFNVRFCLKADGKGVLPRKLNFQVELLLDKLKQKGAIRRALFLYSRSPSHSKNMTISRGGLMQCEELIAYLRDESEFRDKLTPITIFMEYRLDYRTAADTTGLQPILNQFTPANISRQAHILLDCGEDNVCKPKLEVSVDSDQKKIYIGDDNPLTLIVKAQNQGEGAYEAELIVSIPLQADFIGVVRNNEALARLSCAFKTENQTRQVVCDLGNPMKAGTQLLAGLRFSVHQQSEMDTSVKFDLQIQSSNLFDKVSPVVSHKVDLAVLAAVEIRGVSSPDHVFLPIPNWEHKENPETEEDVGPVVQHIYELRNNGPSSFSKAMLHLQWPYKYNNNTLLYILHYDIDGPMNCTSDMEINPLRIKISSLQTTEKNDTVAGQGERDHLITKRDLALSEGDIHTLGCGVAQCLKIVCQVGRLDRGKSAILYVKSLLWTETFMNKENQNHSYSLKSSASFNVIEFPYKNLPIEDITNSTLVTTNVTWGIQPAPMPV
T1 chain 2: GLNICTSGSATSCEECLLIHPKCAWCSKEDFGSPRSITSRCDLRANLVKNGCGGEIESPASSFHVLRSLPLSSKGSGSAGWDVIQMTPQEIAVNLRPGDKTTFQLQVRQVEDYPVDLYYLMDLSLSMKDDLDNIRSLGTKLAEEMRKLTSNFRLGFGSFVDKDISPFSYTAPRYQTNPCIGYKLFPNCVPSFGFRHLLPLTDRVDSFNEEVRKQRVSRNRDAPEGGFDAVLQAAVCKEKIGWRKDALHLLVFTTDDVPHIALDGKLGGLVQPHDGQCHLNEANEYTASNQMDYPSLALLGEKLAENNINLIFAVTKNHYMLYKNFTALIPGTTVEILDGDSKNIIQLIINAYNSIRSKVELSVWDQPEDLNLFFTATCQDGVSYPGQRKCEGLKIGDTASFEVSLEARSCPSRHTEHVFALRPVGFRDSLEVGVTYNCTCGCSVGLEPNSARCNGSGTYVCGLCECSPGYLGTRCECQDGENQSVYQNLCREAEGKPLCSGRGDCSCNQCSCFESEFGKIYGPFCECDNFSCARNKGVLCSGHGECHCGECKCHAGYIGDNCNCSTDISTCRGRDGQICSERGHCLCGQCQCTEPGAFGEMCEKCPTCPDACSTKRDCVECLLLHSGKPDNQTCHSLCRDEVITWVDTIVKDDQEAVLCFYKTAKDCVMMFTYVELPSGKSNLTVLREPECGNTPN

T2: integrin αvβ6 (human, UniProt P06756)
T2 chain 1: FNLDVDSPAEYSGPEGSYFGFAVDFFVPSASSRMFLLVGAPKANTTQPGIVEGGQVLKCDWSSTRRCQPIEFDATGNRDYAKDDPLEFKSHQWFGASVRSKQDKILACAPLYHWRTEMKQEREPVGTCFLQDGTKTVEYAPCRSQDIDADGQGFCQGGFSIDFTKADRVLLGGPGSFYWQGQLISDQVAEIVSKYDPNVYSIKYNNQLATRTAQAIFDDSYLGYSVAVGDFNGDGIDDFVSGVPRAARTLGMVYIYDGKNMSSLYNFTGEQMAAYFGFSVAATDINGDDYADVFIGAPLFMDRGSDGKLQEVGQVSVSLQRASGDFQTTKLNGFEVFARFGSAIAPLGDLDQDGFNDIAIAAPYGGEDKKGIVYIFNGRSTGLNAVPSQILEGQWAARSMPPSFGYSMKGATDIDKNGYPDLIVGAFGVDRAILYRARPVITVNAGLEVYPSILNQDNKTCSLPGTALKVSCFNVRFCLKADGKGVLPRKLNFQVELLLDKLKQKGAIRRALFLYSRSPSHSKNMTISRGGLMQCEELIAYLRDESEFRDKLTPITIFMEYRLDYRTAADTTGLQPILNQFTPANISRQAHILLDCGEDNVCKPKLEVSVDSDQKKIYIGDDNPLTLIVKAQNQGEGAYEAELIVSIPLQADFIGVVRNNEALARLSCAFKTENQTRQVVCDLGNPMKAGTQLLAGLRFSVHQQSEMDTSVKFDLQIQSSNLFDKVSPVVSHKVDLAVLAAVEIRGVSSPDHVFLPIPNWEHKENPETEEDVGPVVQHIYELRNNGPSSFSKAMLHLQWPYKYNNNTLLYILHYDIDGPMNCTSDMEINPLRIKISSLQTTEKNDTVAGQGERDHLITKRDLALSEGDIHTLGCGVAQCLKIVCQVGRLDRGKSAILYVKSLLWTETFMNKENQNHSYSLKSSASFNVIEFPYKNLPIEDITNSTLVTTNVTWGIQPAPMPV
T2 chain 2: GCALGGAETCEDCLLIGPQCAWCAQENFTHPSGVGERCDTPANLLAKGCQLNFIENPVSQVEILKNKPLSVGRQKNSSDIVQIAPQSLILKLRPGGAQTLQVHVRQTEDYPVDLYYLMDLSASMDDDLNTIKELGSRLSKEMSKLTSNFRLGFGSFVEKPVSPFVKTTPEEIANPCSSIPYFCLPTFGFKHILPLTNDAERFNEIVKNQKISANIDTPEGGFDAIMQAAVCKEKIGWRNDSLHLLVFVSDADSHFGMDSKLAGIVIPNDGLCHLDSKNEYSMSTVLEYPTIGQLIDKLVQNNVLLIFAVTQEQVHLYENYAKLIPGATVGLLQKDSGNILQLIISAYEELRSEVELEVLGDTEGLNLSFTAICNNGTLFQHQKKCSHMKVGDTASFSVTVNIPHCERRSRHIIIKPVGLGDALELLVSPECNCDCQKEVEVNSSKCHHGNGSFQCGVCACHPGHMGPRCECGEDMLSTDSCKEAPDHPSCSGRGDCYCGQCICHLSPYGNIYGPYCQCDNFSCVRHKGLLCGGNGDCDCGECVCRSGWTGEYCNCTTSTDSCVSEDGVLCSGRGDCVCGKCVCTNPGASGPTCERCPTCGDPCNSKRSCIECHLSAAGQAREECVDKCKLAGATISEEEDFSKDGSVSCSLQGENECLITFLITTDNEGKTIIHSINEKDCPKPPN

T3: integrin αvβ8 (human, UniProt P06756)
T3 chain 1: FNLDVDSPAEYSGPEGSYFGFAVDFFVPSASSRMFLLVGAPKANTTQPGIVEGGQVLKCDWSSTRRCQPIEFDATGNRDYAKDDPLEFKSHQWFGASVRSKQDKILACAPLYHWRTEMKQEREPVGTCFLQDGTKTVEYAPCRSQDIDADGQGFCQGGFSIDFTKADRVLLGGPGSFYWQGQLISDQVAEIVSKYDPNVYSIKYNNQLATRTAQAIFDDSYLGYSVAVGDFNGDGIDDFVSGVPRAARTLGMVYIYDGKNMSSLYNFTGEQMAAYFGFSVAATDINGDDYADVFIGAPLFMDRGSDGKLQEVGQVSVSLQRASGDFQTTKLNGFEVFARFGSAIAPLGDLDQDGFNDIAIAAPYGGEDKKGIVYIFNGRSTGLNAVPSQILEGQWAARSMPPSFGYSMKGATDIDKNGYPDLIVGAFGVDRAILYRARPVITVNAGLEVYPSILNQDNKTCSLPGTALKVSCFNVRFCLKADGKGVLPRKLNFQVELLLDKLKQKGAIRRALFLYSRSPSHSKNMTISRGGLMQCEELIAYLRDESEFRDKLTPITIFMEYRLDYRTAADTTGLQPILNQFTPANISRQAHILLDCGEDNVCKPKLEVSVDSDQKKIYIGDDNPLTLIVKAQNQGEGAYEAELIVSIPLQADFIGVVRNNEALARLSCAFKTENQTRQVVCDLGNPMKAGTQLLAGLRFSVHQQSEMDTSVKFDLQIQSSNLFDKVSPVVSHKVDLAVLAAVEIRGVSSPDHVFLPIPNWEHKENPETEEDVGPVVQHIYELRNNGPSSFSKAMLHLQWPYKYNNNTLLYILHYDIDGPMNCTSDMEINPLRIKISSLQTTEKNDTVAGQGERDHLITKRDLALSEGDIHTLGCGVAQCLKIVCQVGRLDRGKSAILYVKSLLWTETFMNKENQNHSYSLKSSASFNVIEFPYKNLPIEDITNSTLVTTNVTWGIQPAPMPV
T3 chain 2: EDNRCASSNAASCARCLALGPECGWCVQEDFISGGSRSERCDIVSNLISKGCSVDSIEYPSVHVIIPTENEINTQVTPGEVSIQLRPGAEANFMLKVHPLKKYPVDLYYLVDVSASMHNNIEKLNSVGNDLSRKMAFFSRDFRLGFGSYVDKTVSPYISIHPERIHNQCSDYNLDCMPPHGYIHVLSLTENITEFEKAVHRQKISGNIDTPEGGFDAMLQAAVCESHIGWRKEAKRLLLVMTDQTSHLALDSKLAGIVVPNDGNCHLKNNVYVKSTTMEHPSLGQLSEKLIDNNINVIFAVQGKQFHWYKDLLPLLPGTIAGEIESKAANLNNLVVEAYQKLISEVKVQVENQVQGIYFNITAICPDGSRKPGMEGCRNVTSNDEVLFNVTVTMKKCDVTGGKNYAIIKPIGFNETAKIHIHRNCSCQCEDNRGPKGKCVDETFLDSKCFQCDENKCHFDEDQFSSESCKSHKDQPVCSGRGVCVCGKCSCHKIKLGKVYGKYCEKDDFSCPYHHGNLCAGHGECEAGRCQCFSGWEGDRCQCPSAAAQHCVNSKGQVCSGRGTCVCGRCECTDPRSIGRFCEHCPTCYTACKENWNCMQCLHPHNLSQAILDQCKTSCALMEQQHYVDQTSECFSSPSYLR

T4: integrin αvβ3 (human, UniProt P06756)
T4 chain 1: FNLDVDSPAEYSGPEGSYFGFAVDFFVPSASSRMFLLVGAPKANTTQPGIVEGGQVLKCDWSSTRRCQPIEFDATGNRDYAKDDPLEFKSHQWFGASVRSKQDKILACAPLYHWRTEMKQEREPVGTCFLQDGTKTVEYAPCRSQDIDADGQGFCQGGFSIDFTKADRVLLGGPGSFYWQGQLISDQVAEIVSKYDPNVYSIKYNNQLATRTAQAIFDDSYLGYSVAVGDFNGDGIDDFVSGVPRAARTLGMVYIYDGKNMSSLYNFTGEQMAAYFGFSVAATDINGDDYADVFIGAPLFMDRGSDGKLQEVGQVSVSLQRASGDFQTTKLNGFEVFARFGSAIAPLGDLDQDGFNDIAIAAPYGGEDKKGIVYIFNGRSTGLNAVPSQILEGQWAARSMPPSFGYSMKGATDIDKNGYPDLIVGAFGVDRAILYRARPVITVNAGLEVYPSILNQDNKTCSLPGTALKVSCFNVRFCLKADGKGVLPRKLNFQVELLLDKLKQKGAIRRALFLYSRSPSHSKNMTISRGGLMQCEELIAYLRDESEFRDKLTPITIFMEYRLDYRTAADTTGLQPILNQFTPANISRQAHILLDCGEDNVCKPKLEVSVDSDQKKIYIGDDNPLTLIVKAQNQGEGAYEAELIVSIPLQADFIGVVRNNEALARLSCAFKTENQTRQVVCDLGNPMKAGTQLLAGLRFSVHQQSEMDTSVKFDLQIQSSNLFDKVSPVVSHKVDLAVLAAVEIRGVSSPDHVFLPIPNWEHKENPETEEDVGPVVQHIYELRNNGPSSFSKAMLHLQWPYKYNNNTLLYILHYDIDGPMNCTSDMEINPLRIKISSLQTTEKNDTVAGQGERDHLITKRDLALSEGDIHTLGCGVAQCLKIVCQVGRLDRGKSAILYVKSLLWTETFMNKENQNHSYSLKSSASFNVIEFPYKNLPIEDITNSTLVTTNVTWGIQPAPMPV
T4 chain 2: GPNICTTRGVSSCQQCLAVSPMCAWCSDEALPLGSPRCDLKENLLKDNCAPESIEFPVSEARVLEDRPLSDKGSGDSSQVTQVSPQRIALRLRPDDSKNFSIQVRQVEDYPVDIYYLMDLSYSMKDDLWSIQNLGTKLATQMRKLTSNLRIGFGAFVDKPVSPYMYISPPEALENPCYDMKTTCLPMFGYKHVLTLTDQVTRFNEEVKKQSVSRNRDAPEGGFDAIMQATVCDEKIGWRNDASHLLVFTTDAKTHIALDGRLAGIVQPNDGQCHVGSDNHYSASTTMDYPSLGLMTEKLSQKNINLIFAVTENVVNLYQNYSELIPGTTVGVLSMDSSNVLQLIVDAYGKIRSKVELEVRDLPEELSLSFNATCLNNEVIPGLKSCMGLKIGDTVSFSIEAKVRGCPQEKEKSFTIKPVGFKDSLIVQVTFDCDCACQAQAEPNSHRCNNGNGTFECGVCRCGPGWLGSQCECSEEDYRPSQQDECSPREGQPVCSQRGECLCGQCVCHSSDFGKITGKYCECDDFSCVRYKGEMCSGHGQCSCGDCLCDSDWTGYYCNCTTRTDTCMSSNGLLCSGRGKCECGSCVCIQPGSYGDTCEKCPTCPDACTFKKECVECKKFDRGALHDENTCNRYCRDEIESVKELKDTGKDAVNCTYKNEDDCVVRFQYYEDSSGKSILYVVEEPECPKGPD


Legend:
Experiment in all cases: competition
integrin αIIbβ3 = integrin αIIbβ3 (human, UniProt P08514)
integrin αvβ5 = biological target: T1, integrin αvβ5
integrin αvβ6 = biological target: T2, integrin αvβ6
integrin αvβ8 = biological target: T3, integrin αvβ8
integrin αvβ3 = biological target: T4, integrin αvβ3
integrin α5β1 = integrin α5β1 (human, UniProt P08648)
integrin α5β1, sequence (P08648 42-1049, chain 1 of 2): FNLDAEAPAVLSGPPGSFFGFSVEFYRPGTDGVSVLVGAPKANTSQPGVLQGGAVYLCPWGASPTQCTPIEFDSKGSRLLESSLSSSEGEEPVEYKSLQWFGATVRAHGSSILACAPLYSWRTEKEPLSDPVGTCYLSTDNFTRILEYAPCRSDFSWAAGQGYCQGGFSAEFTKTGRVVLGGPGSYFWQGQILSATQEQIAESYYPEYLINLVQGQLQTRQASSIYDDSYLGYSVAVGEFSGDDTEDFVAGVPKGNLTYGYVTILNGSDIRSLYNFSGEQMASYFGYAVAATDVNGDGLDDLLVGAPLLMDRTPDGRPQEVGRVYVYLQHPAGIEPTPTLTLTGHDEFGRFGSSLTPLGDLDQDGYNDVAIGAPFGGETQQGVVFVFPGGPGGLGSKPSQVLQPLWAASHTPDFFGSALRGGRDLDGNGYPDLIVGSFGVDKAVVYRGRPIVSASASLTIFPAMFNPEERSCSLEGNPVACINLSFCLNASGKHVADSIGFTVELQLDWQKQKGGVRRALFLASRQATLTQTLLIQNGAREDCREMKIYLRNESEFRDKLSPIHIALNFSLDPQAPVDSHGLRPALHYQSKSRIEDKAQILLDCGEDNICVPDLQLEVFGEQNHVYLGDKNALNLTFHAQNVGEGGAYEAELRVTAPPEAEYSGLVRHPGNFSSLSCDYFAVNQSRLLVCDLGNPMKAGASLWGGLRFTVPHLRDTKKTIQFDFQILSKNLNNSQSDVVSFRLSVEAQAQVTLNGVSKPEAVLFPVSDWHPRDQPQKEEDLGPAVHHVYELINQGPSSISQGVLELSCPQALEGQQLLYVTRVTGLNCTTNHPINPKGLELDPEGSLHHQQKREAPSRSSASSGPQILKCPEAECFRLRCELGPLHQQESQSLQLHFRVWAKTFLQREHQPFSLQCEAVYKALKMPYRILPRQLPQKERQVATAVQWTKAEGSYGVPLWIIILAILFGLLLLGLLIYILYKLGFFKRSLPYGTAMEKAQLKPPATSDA
integrin α5β1, sequence (chain, as listed by the source, chain 2 of 2): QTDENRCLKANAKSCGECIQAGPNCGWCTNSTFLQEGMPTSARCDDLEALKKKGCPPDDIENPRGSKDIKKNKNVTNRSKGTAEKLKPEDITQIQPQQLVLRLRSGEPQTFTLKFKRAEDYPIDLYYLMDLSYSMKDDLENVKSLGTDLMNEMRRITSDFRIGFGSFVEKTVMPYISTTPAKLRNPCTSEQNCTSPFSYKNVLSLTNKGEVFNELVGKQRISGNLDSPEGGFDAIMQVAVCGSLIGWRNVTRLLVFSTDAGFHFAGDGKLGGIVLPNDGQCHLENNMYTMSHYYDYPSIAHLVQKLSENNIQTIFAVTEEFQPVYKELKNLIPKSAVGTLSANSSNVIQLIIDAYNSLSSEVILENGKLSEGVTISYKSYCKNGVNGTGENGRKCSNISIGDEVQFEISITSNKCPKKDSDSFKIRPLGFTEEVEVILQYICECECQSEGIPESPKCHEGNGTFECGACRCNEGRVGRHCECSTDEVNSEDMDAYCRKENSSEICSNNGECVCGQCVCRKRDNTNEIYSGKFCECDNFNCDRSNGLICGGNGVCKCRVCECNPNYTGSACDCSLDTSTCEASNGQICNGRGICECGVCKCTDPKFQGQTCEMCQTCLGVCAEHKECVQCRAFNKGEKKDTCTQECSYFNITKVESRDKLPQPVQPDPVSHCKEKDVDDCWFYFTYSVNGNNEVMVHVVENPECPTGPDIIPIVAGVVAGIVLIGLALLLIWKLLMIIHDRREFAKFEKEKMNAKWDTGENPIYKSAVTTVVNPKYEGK

Row | Binder | IC50 (integrin αIIbβ3) [nM] | IC50 (integrin αvβ5) [nM] | IC50 (integrin αvβ6) [nM] | IC50 (integrin αvβ8) [nM] | IC50 (integrin αvβ3) [nM] | IC50 (integrin α5β1) [nM]
1 | cyclo(RGDL[dP][NMeK]([Ahx-BDPFL])GL) [Compound 9b (9-Ahx-BDPFL)] | > 1000 | > 10000 | 55 | 0.87 | 239 | > 1000
2 | cyclo(RGD[dF]K) [Compound 12 (Table 3) c(RGDfK)] | > 10000 |  |  |  |  | 141
3 | RGDL[dP][NMeK]([(PEG)5-BODIPY(FL)])GL (not fully specified (bridges); also: cyclic, closure not given here) [Compound 9d (9-(PEG)5-BDPFL)] |  | > 10000 | 247 | 1.25 | 98 | 95

Source: US20200087347 (published 2020)
